Data: the RNAGym collection of RNA variant scans (doi:10.1021/acssynbio.7b00057)

B1: Pistol ribozyme (parent)
chain: GGGUCGUUGUUCCAUAAUCGCGUGGAUAUGGCACGCAAGUUUCUACCGGGCACCGUAAAUGUCCGACUGGAGCCGUUCGGGCGGCUAUAAACAGACCUCAGGCCCGAAGCGUGGCGGCACCUGCCGCCGGUGGUAAAAAAGAUCGGAAGAGCACACGUCU

Variants of: B1
Assay: aptazyme ON/OFF ratio, guanine; higher = stronger switching; co-transcriptional cleavage with and without guanine

Row | Variant | aptazyme ON/OFF ratio
1 | U7C U8C G9C U10A C12U C13A | 1.11
2 | U7C U8C G9U U10A C12G C13A | 1.16
3 | U7C U8C G9U U10A C12G C13U | 1.08
4 | U7C U8C G9U U10A C12G C13G | 1.12
5 | U7C U8C G9C U10G U11G C12A C13A | 1.08
6 | U7C U8C G9C U10G U11G C12A C13U | 1.09
7 | U7C U8C G9C U10G U11G C12A C13G | 1.07
8 | U7C U8C G9C U11C C13A | 1.28
9 | U7C U8C G9C U11C C13G | 1.04
10 | U7C U8C G9C U11C C13U | 1.24
11 | U7C U8C G9C U10A U11C C12U | 1.17
12 | U7C U8C G9C U10A U11C C12G | 1.21
13 | U7C U8C G9C U10A U11C C12A | 1.21
14 | U7C U8C G9U U10A U11A C13G | 1.14
15 | U7C U8C G9U U10A U11A C13U | 1.22
16 | U7C U8C G9U U10A U11A C13A | 1.13
17 | U7C U8C G9U C12G C13U | 1.17
18 | U7C U8C G9U C12G C13A | 1.21
19 | U7C U8C G9U C12G C13G | 1.12
20 | U7C U8C G9C U10G C12A C13G | 1.06
21 | U7C U8C G9C U10G C12A C13A | 1.1

Row | Variant | aptazyme ON/OFF ratio
22 | U7C U8C G9C U10G C12A C13U | 1.1
23 | U7C U8C G9C U10C C12A C13A | 1.06
24 | U7C U8C G9C U10C C12A C13U | 1.1
25 | U7C U8C G9C U10C C12A C13G | 1.07
26 | U7C U8C G9C U10C U11A C12U C13G | 1.11
27 | U7C U8C G9C U10C U11A C12U C13A | 1.08
28 | U7C U8C G9C U10C U11A C12U C13U | 1.1
29 | U7C U8C G9C U10A U11G C12G | 1.14
30 | U7C U8C G9C U10A U11G C12A | 1.16
31 | U7C U8C G9C U10A U11G C12U | 1.05
32 | U7C U8C G9C U10C U11G C12U C13U | 1.1
33 | U7C U8C G9C U10C U11G C12U C13A | 1.09
34 | U7C U8C G9C U10C U11G C12U C13G | 1.1
35 | U7C U8C G9C U11C C12U C13A | 1.05
36 | U7C U8C G9C U11C C12U C13U | 1.11
37 | U7C U8C G9C U11C C12U C13G | 1.08
38 | U7C U8C G9U U10A U11G C12U C13G | 1.13
39 | U7C U8C G9U U10A U11G C12U C13U | 1.14
40 | U7C U8C G9U U10A U11G C12U C13A | 1.06
41 | U7C U8C G9C U10G C12U C13A | 1.08
42 | U7C U8C G9C U10G C12U C13G | 1.09

Row | Variant | aptazyme ON/OFF ratio
43 | U7C U8C G9C U10G C12U C13U | 1.08
44 | U7C U8C G9C U10C C12G C13U | 1.04
45 | U7C U8C G9C U10C C12G C13A | 1.16
46 | U7C U8C G9C U10C C12G C13G | 1.04
47 | U7C U8C G9U C12A | 1.36
48 | U7C U8C G9U C12G | 1.29
49 | U7C U8C G9U C12U | 1.61
50 | U7C U8C G9C U10A U11A C12A C13A | 1.09
51 | U7C U8C G9C U10A U11A C12A C13G | 1.03
52 | U7C U8C G9C U10A U11A C12A C13U | 1.13
53 | U7C U8C G9C U10A U11A C12G C13U | 1.09
54 | U7C U8C G9C U10A U11A C12G C13G | 1.19
55 | U7C U8C G9C U10A U11A C12G C13A | 1.11
56 | U7C U8C G9C U10C U11C C12A C13G | 1.09
57 | U7C U8C G9C U10C U11C C12A C13U | 1.02
58 | U7C U8C G9C U10C U11C C12A C13A | 0.986
59 | U7C U8C G9C U10C U11G | 1.3
60 | U7C U8C G9C U10C U11A | 1.4
61 | U7C U8C G9C U10C U11C | 1.14
62 | U7C U8C G9C U10A C12A C13U | 1.21
63 | U7C U8C G9C U10A C12A C13G | 1.14

Row | Variant | aptazyme ON/OFF ratio
64 | U7C U8C G9U U10A U11A C12U | 1.28
65 | U7C U8C G9U U10A U11A C12A | 1.27
66 | U7C U8C G9U U10A U11A C12G | 1.2
67 | U7C U8C G9U U10C U11A | 2.44
68 | U7C U8C G9C U11C C12G C13U | 1.01
69 | U7C U8C G9C U11C C12G C13G | 1.2
70 | U7C U8C G9C U11C C12G C13A | 1.09
71 | U7C U8C G9U U10A | 1.13
72 | U7C U8C G9U U10C | 2.52
73 | U7C U8C G9U U10C C12G C13A | 1.11
74 | U7C U8C G9U U10C C12G C13G | 1.11
75 | U7C U8C G9U U10C C12G C13U | 1.13
76 | U7C U8C G9U U10A U11G C12G C13U | 1.07
77 | U7C U8C G9U U10A U11G C12G C13A | 1.19
78 | U7C U8C G9U U10A U11G C12G C13G | 1.08
79 | U7C U8C G9C U10A U11A C12G | 1.08
80 | U7C U8C G9C U10A U11A C12U | 1.09
81 | U7C U8C G9C U10A U11A C12A | 1.21
82 | U7C U8C G9C U10C U11G C12A C13U | 1.09
83 | U7C U8C G9C U10C U11G C12A C13A | 1.08
84 | U7C U8C G9C U10C U11G C12A C13G | 1.04
